The values below are quoted from earlier work in PMC11668491.

The target of the data set is UBC2 (Saccharomyces cerevisiae) (UniProt P06104).
Sequence of UniProt P06104 (P06104 whole entry): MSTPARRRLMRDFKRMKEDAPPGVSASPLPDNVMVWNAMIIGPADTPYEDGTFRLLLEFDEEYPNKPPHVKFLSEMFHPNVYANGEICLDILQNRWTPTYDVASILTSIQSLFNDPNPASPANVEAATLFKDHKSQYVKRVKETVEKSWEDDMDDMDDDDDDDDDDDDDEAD

Regarding UBR1 U2BR (from UniProt P19812), the Kd (usually the constant that tells how readily two partners part at equilibrium) is 140 nM.
